We go through six molecules from article PMC5817196, “DprA from Neisseria meningitidis: properties and role in natural competence for transformation” (Microbiology, 2017).

One may read the stoichiometry N as a count of units in the complex or per binding partner. The term Kd denotes the free concentration of one partner at which half of the binding sites on the other are occupied at equilibrium, for simple one-to-one binding.

First the molecules themselves.
T1: DprA (DprANm) (Neisseria meningitidis MC58, UniProt Q9K1K1 1-397)
T1 sequence: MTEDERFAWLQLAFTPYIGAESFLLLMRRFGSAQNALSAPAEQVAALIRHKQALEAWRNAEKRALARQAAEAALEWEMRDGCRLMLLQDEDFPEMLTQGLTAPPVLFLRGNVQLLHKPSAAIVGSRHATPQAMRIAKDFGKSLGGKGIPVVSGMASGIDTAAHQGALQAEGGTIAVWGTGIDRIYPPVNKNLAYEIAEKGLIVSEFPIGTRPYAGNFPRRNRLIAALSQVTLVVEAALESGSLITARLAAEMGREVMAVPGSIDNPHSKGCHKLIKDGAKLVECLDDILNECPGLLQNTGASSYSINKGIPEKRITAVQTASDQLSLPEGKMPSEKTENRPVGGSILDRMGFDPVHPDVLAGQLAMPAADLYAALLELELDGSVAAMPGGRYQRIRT

B1: single-stranded binding protein of Neisseria meningitidis (SSBNm), recombinant (natural protein, UniProt P66848 1-174, looked up)
chain: MSLNKVILIGRLGRDPEVRYMPNGEAVCNFSVATSETWNDRNGQRVERTEWHNITMYRKLAEIAGQYLKKGGLVYLEGRIQSRKYQGKDGIERTAYDIVANEMKMLGGRNENSGGAPYEEGYGQSQEAYQRPAQQSRQPASDAPSHPQEAPAAPRRQPVPAAAPVEDIDDDIPF
modifications: RED-NHS dye (Monolith NT Protein Labeling kit RED-NHS), degree of labelling 0.3 to 0.6, in the MST experiment only
notes: Theoretical size of the tetramer is printed as 83.4 kDa
B2: C80 (ssDNA)
DNA: GCTGATCAACCCTACATGTGTAGGTAACCCTAACCCTAACCCTAAGGACAACCCTAGTGAAGCTTGTAACCCTAGGAGCT
B3: GTB25 (ssDNA)
DNA: GCCGTCTGAAAGCTCTAGGCCGTCTGAAACGTCAGGCCGTCTGAAAGCTCTAGGCCGTCTGAAACGTCAGGCCGTCTGAA
B4: DNA processing chain A from Neisseria meningitidis MC58 (DprANm), recombinant, N-terminal 6xHis-tag (natural protein, UniProt Q9K1K1 1-397, looked up)
chain: T1 sequence
notes: DprA (DNA processing chain A) of Neisseria meningitidis strain MC58, locus NMB0116; the dprA gene was amplified with primers EH041 and EH042 and inserted into pET28b(+); Theoretical size of the dimer is printed as 89.6 kDa; also called Nm DprA; source: E. coli ER2566 carrying pMGM1 (pET28b(+)), purified (Ni-NTA, dialysed)
B5: dT80 (ssDNA)
DNA: TTTTTTTTTTTTTTTTTTTTTTTTTTTTTTTTTTTTTTTTTTTTTTTTTTTTTTTTTTTTTTTTTTTTTTTTTTTTTTTT

Data set [1] deals with the molecule itself. Nature of the data set: SEC-MALS; Superdex 200 10/300 GL with Malvern Viscotek UV, RI and static light-scattering detectors; calibrated with BSA; conditions similar to the co-size-exclusion assay; size from the main eluting peak. (Size exclusion chromatography separates by hydrodynamic size, large species first.)
Data set [2] addresses B4. Nature of the data set: MST; RED-NHS-labelled SSBNm (23.6 nM) or SSBNmΔ8C (25.6 nM), DprANm titrated; 20 mM HEPES pH 7.5, 300 mM NaCl, 0.05 % Tween 20, 0.1 % Pluronic F-127, 0.1 % PEG 8000, 2 mM DTT; 22 °C, 20 % MST power, Monolith NT.115. The conditions noted are these: both partners purified.
Data set [3] deals with T1, DprA (DprANm). Nature of the data set: EMSA; 0.5-80 nM DprA; stronger than dsDNA G80C80 (P=0.034); EMSA: 40 mM Tris-HCl pH 8, 2.5 mM EDTA, 2 mM MgCl2, 100 mg/ml BSA (so in the source), 6% glycerol, 1 mM DTT; 30 min on ice; 5% native PAGE at 4 °C. Conditions: protein: recombinant; tags: N-terminal 6xHis (pET28b, cleavable); chain copies: 2; label: 32P end label. (In general: A gel shift assay detects complexes by their altered migration in electrophoresis.)

The target in data set [4] is T1, DprA (DprANm). Nature of the data set: EMSA; 30 nM DprA; complex dissociates easily during electrophoresis; EMSA: 40 mM Tris-HCl pH 8, 2.5 mM EDTA, 2 mM MgCl2, 100 mg/ml BSA (so in the source), 6% glycerol, 1 mM DTT; 30 min on ice; 5% native PAGE at 4 °C. The conditions noted are these: protein: recombinant; tags: N-terminal 6xHis (pET28b, cleavable); chain copies: 2; label: 32P.

The target in data set [5] is T1, DprA (DprANm). Nature of the data set: EMSA; 20-40 nM DprA; affinity similar to C80; EMSA: 40 mM Tris-HCl pH 8, 2.5 mM EDTA, 2 mM MgCl2, 100 mg/ml BSA (so in the source), 6% glycerol, 1 mM DTT; 30 min on ice; 5% native PAGE at 4 °C. Conditions: protein: recombinant; tags: N-terminal 6xHis (pET28b, cleavable); chain copies: 2; label: 32P end label.
Data set [6] addresses T1, DprA (DprANm). Nature of the data set: EMSA; 30 nM DprA; very stable complex; EMSA: 40 mM Tris-HCl pH 8, 2.5 mM EDTA, 2 mM MgCl2, 100 mg/ml BSA (so in the source), 6% glycerol, 1 mM DTT; 30 min on ice; 5% native PAGE at 4 °C. The conditions noted are these: protein: recombinant; tags: N-terminal 6xHis (pET28b, cleavable); chain copies: 2; label: 32P.

Take B1: the “stoichiometry N” value in data set [1] was 4. Also, the Kd in data set [2] is 1.46 ± 0.544 µM. For B2, in the data set with DprA (DprANm) [3], the binding result is on record as “binds”. Consider TTTTTTTTTTTTTTTTTTTTTTTTTTTTTTTTTTTTTTTT (ssDNA) [dT40], for which, in the data set with DprA (DprANm) [4], the binding result is reported as “binds”. On to B3, for which, in the data set with DprA (DprANm) [5], the binding result is “binds”. For B4, in data set [1], the “stoichiometry N” value came out at 2. For B5, the binding result with DprA (DprANm) [6] is “binds”.
